The source of these data is paper PMC5857972 (2018).

Sequences and labels used below:
T1: extracellular portion of the human FcγIIA (human, UniProt P12318-1 34-215)
T1 chain: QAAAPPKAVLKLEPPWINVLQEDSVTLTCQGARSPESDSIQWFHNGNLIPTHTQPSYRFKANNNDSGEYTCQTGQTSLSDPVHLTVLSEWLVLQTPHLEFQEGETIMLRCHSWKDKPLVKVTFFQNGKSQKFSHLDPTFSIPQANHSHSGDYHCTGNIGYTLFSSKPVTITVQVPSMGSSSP

B1: Pertuzumab Vκ1|VH3 whole IgG1 (original pairing) (antibody, V domains shown)
VH: EVQLVESGGGLVQPGGSLRLSCAASGFTFTDYTMDWVRQAPGKGLEWVADVNPNSGGSIYNQRFKGRFTLSVDRSKNTLYLQMNSLRAEDTAVYYCARNLGPSFYFDYWGQGTLVTVSS
VL: DIQMTQSPSSLSASVGDRVTITCKASQDVSIGVAWYQQKPGKAPKLLIYSASYRYTGVPSRFSGSGSGTDFTLTISSLQPEDFATYYCQQYYIYPYTFGQGTKVEIK

One assay deals with T1, extracellular portion of the human …. The assay can be described thus: BLI. Background: BLI is a label-free optical method that tracks binding on a fibre tip over time.
The term Kd denotes the free concentration of one partner at which half of the binding sites on the other are occupied at equilibrium, for simple one-to-one binding. In turn, B1 had a Kd of 9.31 nM.

The target is the same in the next assay. Description: BLI. This is another data set of the same source.
By koff is commonly meant the rate constant with which the complex falls apart. Low readings indicate slow dissociation, high ones fast dissociation. On to B1, for which the koff was 0.00154 s⁻¹.

A further assay deals with extracellular portion of the human FcγIIA (human) (UniProt P12318). Description: BLI.
“Pertuzumab Vκ1|VH2 whole IgG1 variant (from UniProt P01857)” registered a Kd of 4.74 nM.
Same read-out and setting: for “Pertuzumab Vκ2|VH2 whole IgG1 variant (from UniProt P01857)” the value was 4.99 nM.
The same measure, in the same setting: for “Pertuzumab Vκ2|VH6 whole IgG1 variant (from UniProt P01857)” the value was 3.94 nM; for “Pertuzumab Vκ3|VH1 whole IgG1 variant (from UniProt P01857)”, 11.5 nM; for “Pertuzumab Vκ3|VH3 whole IgG1 variant (from UniProt P01857)”, 23.7 nM.
As to “Pertuzumab Vκ4|VH1 whole IgG1 variant (from UniProt P01857)”, the Kd is 116 nM.
The same measure, in the same setting: for “Pertuzumab Vκ4|VH2 whole IgG1 variant (from UniProt P01857)” the value was 3.33 nM.
The same measure, in the same setting: for “Pertuzumab Vκ5|VH3 whole IgG1 variant (from UniProt P01857)” the value was 15.7 nM.
“Pertuzumab Vκ6|VH5 whole IgG1 variant (from UniProt P01857)”: the Kd came to 83 nM.
Molecule “Pertuzumab Vκ6|VH7 whole IgG1 variant (from UniProt P01857)” displayed a dissociation constant Kd of 72.7 nM.
In turn, “Trastuzumab Vκ2|VH6 whole IgG1 variant (from UniProt P01857)” gave a Kd of 14.7 nM.
The same measure, in the same setting: for “Trastuzumab Vκ3|VH1 whole IgG1 variant (from UniProt P01857)” the value was 9.3 nM; for “Trastuzumab Vκ6|VH1 whole IgG1 variant (from UniProt P01857)”, 47.9 nM; for “Trastuzumab Vκ6|VH4 whole IgG1 variant (from UniProt P01857)”, 30 nM.
In turn, “Trastuzumab Vκ6|VH5 whole IgG1 variant (from UniProt P01857)” displayed a Kd of 12.5 nM.
“Trastuzumab Vκ6|VH6 whole IgG1 variant (from UniProt P01857)”: the Kd worked out at 39.7 nM.

For another assay, the target named is Pertuzumab Vκ1|VH3 whole IgG1 (original pairing). Description: BLI; Octet QKe; antibody captured by its Fc on Anti-Human Fc Capture (AHC) biosensor, Her2 in solution; KD calculated from Kon and Koff by the Octet software; triplicates.
Consider “Her2 (from UniProt P04626 23-1255) (natural protein)”, for which the Kd is 0.87 nM.
